In publication PMC2965237:

Legend:
Assay in all cases: EMSA
[1] = target: RdgC H222A (Escherichia coli, UniProt P36767 1-303, H222A)
[2] = target: RdgC E218R (Escherichia coli, UniProt P36767 1-303, E218R)
[3] = target: RdgC R118A (Escherichia coli, UniProt P36767 1-303, R118A)
[4] = target: RdgC R118C (Escherichia coli, UniProt P36767 1-303, R118C)
[5] = target: RdgC F120T K227A (Escherichia coli, UniProt P36767 1-303, F120T;K227A)
[6] = target: RdgC Δfinger R118C (Escherichia coli, UniProt P36767 1-303, P76G;L116T;R118C;del77-115)

B1: RGL13/17 (dsDNA)
DNA 1: GACGCTGCCGAATTCTGGCTTGCTAGGACATCTTTGCCCACGTTGACCC
DNA 2: GGGTCAACGTGGGCAAAGATGTCCTAGCAAGCCAGAATTCGGCAGCGTC
B1 was tested, and the Kd [1] was 12 nM, the Kd [2] was 22 nM and the Kd [3] was 6 nM. It also gave a Kd [4] of 6 nM.

B2: RGL13 (ssDNA)
DNA: B1 DNA 1
For B2, the Kd [1] was 5 nM, the binding result [5] was “no binding” and the Kd [3] was 6 nM. For the same binder, the Kd [4] was 6 nM and the Kd [6] was about 6000 nM.
